This note sets out measurements from US20220213145A1 (Bicycle, published 2022).

The target of assay [1] is T1, Recombinant human CD137 homotrimer (R&D systems), biotinylated (human, UniProt Q07011 24-186, limits assumed, biotinylated with EZ-Link Sulfo-NHS-LC-LC-Biotin).
T1 construct: also called biotinylated CD137
Put plainly: SPR (Biacore T200), biotinylated CD137 on streptavidin. As to the method: (§1) Biacore experiments were performed to determine kₐ (M⁻¹s⁻¹), kd (s⁻¹), KD (nM) values of peptides binding to human CD137 protein. […] The protein was desalted to remove uncoupled biotin using spin columns into PBS.
(§2) For analysis of binding, a Biacore T200 instrument was used utilising a XanTec CMD500D chip. Streptavidin was immobilized on the chip using standard amine-coupling chemistry at 25° C. with HBS-N (10 mM HEPES, 0.15 M NaCl, pH 7.4) as the running buffer. Briefly, the carboxymethyl dextran surface was activated with a 7 min injection of a 1:1 ratio of 0.4 M 1-ethyl-3-(3-dimethylaminopropyl) carbodiimide hydrochloride (EDC)/0.1 M N-hydroxy succinimide (NHS) at a flow rate of 10 μl/min. For capture of streptavidin, the protein was diluted to 0.2 mg/ml in 10 mM sodium acetate (pH 4.5) and captured by injecting 120 μl of onto the activated chip surface. Residual activated groups were blocked with a 7 min injection of 1 M ethanolamine (pH 8.5) and biotinylated CD137 captured to a level of 800-1800 RU. Buffer was changed to PBS/0.05% Tween 20 and a dilution series of the peptides was prepared in this buffer with a final DMSO concentration of 0.5%. The top peptide concentration was 500 nM or 10 μM with 6 further 3-fold (500 nm), or 2-fold (10 μM) dilutions in PBS/0.05% Tween 20. The SPR analysis was run at 25° C. at a flow rate of 90 μl/min with 60 seconds association and 100-600 seconds dissociation. After each cycle, a regeneration step (10 μl of 10 mM glycine pH 2) was employed. Data were corrected for DMSO excluded volume effects. All data were double-referenced for blank injections and reference surface using standard processing procedures and data processing and kinetic fitting were performed using Scrubber software, version 2.0c (BioLogic Software). Data were fitted using mass transport model allowing for mass transport effects where appropriate.
In general terms: Surface plasmon resonance follows binding to a sensor surface in real time, without labels.

Assay [2] concerns the target CD137 on Jurkat reporter cells (Promega CD137 luciferase reporter assay) (UniProt Q07011 24-255, limits assumed). Description: cell-based or functional assay.
Assay [3] deals with T2, human CD137 protein (direct binding assay) (human, UniProt Q07011 24-186, limits assumed).
T2 construct: Soluble CD137 protein titrated from 3 uM in the fluorescence polarisation assay; also called hCD137; TNFRSF9
Put plainly: FP direct binding. The protocol: Affinity of the peptides of the invention for human CD137 (Ki) was determined using a fluorescence polarisation assay, in accordance with the methods disclosed in WO 2016/067035. […] CD137 protein was titrated starting at 3 μM in the same assay buffer as the peptide to assay 1 nM peptide in a total volume of 25 μL in black walled and bottomed low bind low volume 384 well plates. […] The concentrations of CD137 protein were 1 in 2 serial dilutions to give 12 different concentrations starting at 3 μM. Measurements were conducted on a BMG PHERAstar FS equipped with an FP 485 520 520 optic module at 25° C. with 200 flashes per well and a positioning delay of 0.1 second. Alternatively, the measurements were performed using Envision (PerkinElmer) equipped with FITC FP Dual Enh mirror, set to 30 flashes. Each well was measured every 5 minutes for 60 minutes. The gain used for analysis was determined for each tracer at the end of the 60 minutes where there was no protein in the well. The mP were fit to a standard 1:1 binding model with a quadratic equation to generate a Kd value.

The target in assay [4] is T1, Recombinant human CD137 homotrimer (R&D …). Description: SPR (Biacore T200), biotinylated CD137 on streptavidin (n = 2). As to the method: as §1
as §2, with “The SPR analysis was run at 25° C. at a flow rate of 90 μl/min with 60 seconds association and 100-600 seconds dissociation. After each cycle, a regeneration step (10 μl of 10 mM glycine pH 2) was employed. Data were corrected for DMSO excluded volume effects. All data were double-referenced for blank injections and reference surface using standard processing procedures and data processing and kinetic fitting were performed using Scrubber software, version 2.0c (BioLogic Software). Data were fitted using mass transport model allowing for mass transport effects where appropriate.” left out

Starred links: 1 amine or outer side, 2 acyl side, 3 side chain; linkers in the order of their positions; H or OH if unused. Positions of bridges follow the written chain, without caps; N, C: chain ends. Non-standard residues stand in square brackets, D forms with d. Primed or numbered codes have the meaning given here. No end group written: not given here. TATA′ = 1,3,5-triacryloylhexahydro-1,3,5-triazine scaffold bound to the three cysteines; TATA = O=C(CC[*:1])N1CN(C(=O)CC[*:2])CN(C(=O)CC[*:3])C1; Phe(4-Me) = Cc1ccc(C[C@H](N)C(=O)O)cc1; Ser(ΨH,HPro) = O=C(O)[C@@H]1COCN1; Nle = CCCC[C@H](N)C(=O)O; PEG3′ = not defined here; Ac5c = NC1(C(=O)O)CCCC1

Sequence of CD137 on Jurkat reporter cells (Promega CD137 luciferase reporter assay) (Q07011 24-255 limits assumed): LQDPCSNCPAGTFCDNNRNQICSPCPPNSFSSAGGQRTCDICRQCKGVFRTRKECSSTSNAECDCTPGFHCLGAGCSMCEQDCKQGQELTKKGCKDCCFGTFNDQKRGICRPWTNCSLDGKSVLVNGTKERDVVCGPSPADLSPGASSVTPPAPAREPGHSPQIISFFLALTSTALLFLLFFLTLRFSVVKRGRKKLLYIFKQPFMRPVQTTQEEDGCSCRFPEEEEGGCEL

Turning to Ac-ACIEEGQ[Phe(4-Me)]CFADPY[Nle]CA (linker 2-9-16 via TATA, also called Ac-(74-01-04) 4MePhe6 Nle12) [BCY8670], in assay [1], the Kd (usually the concentration at which binding is half-saturated) stood at 1000 nM. As to ACIEEGQYCFADPYMCA (linker 2-9-16 via TATA) [BCY592], the “IC50 (% inhibition of CD137L-induced NF-kB luciferase activity in CD137 Jurkat reporter cells)” value in assay [2] turned out to be 3960 nM.

Regarding Ac-ACI[Ser(ΨH,HPro)]EGQYCFADPY[Nle]CA (linker 2-9-16 via TATA′, also called Ac-(74-01-04) Oxa2 Nle12) [BCY7958], the Kd in assay [1] worked out at 20 nM.

For Ac-AC[Ac5c]EEGQYCFADPY[Nle]CA (linker 2-9-16 via TATA, also called Ac-(74-01-04) Ac5c1 Nle12) [BCY8658], the Kd in assay [1] is 200 nM.

As to ACIEEGQYCFADPYXCA (ACIEEGQYCF[dA]DPY[Nle]CA; cyclised on TATA, also called A-(74-01-04)-A D-Ala8 Nle12) [BCY8217], in assay [1], the Kd worked out at 500 nM.

B1: BCY7166 (peptide)
peptide: [PEG3′]ACIEE[dF]QYCFADPY[Nle]CA
modifications: linker 3-10-17 via TATA; also: fluorescein-labelled
notes: also called [PEG3]-(74-01-04) D-Phe4 Nle12
Take B1: in assay [3], the equilibrium dissociation constant (Kd) turned out to be 10 nM.

B2: BCY7290 (peptide)
peptide: [PEG3′]ACIEEGQYCFAAPY[Nle]CA
modifications: linker 3-10-17 via TATA; also: fluorescein-labelled
notes: also called [PEG3]-(74-01-04) Ala9 Nle12
In turn, B2 came in with a Kd in assay [3] of over 3000 nM. Consider ACIEEGQYCFXDPYXCA ([Ac]ACIEEGQYCF[Abu]DPY[Nle]CA; cyclised on TATA, also called Ac-(74-01-04) Abu8 Nle12) [BCY8676], for which the Kd in assay [1] is 1000 nM.

The molecule ACIEEGQYCFADPYXCA ([PEG3]ACIEEGQYCFADPY[tBuAla]CA; fluorescein-labelled; cyclised on TATA, also called [PEG3]-(74-01-04) tBuAla12) [BCY7210] came in with a dissociation constant (Kd) in assay [3] of 70 nM. On to Ac-ACIEE[Ac5c]QYCFADPY[Nle]CA (linker 2-9-16 via TATA, also called Ac-(74-01-04) Ac5c4 Nle12) [BCY8665], for which the dissociation constant Kd in assay [4] was 200 nM.

B3: BCY7961 (peptide)
peptide: Ac-ACIPE[dA]PYCFADPY[Nle]CA
modifications: linker 2-9-16 via TATA′
notes: also called Ac-(74-01-04) Pro2 DAla4 Pro5 Nle12
Regarding B3, the Kd in assay [1] is 10 nM.
